Consider five molecules from article PMC7144908.

Data set [1] has as its target T1, SV40 large T antigen (Tag) (Simian virus 40, UniProt P03070 1-708). Description: DSF. For orientation: DSF heats the sample and reads unfolding from a dye or from intrinsic fluorescence.
For data set [2], the target named is T1, SV40 large T antigen (Tag). In words: DSF. The source holds these as a separate data set.
In data set [3] the target is T1, SV40 large T antigen (Tag). In words: DSF. The source holds these as a separate data set.
In data set [4] the target is T1, SV40 large T antigen (Tag). Description: DSF. The source holds these as a separate data set.
The target of data set [5] is T1, SV40 large T antigen (Tag). Description: EMSA. Background: Mobility shift assays separate free from complexed probe on a gel.
Data set [6] addresses T1, SV40 large T antigen (Tag). In words: EMSA. This is another data set of the same source.
Data set [7] concerns the target T1, SV40 large T antigen (Tag). Description: EMSA. This is another data set of the same source.
Data set [8] addresses T1, SV40 large T antigen (Tag). Description: EMSA. This is another data set of the same source.
Data set [9] addresses T1, SV40 large T antigen (Tag). In words: EMSA. This is another data set of the same source.
Data set [10] concerns the target T1, SV40 large T antigen (Tag). Description: AUC.
Data set [11] has as its target Replication protein A (RPA) (human, UniProt P27694;P15927;P35244 1-616;1-270;1-121). Description: EMSA.
Data set [12] has as its target T1, SV40 large T antigen (Tag). In words: EMSA. This is another data set of the same source.
Data set [13] deals with SV40 large T antigen (Tag);Replication protein A (RPA) (Simian virus 40;human, UniProt P03070;P27694;P15927;P35244 1-708;1-616;1-270;1-121, |). In words: EMSA.
The target of data set [14] is T1, SV40 large T antigen (Tag). Description: EMSA. The source holds these as a separate data set.

T1 sequence (P03070 whole entry): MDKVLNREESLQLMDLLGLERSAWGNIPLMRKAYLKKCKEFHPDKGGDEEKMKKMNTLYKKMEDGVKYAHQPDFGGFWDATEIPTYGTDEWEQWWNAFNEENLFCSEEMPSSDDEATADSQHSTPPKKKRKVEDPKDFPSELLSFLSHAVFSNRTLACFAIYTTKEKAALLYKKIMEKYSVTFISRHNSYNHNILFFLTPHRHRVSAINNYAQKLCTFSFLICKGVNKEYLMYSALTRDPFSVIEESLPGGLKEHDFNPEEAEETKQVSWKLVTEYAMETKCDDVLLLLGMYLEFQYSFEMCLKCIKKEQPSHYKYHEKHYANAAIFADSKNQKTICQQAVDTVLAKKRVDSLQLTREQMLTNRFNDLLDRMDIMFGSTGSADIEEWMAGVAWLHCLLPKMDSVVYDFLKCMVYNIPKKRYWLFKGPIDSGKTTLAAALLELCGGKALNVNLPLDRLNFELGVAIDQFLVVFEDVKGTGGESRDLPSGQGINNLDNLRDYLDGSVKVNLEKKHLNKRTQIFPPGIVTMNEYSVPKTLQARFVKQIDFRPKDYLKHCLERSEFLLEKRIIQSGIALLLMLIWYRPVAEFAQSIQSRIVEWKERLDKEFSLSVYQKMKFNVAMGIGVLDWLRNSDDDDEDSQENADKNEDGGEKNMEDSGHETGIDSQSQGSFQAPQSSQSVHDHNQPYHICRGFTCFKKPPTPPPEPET
Sequence of Replication protein A (RPA) (P27694 whole entry, chain 1 of 3): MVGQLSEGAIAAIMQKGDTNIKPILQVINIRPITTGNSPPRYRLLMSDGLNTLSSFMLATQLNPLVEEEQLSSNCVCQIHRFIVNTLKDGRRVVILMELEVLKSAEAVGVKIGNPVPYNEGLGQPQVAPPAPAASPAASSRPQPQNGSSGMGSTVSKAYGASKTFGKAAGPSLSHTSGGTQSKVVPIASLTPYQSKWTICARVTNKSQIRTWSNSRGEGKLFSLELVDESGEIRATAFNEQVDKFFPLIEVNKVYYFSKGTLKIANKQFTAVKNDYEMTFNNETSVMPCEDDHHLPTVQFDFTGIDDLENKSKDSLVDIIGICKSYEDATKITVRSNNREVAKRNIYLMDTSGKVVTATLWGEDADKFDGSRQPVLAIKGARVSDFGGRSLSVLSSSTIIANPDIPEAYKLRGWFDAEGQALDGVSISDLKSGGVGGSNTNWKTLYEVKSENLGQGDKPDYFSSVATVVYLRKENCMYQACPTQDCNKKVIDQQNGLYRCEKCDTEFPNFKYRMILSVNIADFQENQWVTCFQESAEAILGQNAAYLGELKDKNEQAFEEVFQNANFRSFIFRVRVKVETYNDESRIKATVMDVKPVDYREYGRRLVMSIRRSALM
Sequence of Replication protein A (RPA) (P15927 whole entry, chain 2 of 3): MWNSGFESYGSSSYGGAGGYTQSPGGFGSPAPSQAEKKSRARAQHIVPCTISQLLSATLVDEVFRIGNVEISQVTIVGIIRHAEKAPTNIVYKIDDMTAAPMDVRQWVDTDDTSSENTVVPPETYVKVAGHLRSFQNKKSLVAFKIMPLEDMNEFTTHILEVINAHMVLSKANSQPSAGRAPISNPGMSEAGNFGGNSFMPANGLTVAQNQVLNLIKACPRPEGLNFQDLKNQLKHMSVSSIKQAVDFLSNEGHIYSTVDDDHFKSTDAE
Sequence of Replication protein A (RPA) (P35244 whole entry, chain 3 of 3): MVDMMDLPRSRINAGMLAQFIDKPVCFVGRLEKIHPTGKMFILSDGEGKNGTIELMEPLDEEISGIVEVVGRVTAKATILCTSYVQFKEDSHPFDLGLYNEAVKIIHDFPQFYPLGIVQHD
Sequence of SV40 large T antigen (Tag);Replication protein A (RPA) (P03070 whole entry, chain 1 of 4): as the sequence (P03070 whole entry) above
Sequence of SV40 large T antigen (Tag);Replication protein A (RPA) (P27694 whole entry, chain 2 of 4): as the sequence (P27694 whole entry, chain 1 of 3) above
Sequence of SV40 large T antigen (Tag);Replication protein A (RPA) (P15927 whole entry, chain 3 of 4): as the sequence (P15927 whole entry, chain 2 of 3) above
Sequence of SV40 large T antigen (Tag);Replication protein A (RPA) (P35244 whole entry, chain 4 of 4): as the sequence (P35244 whole entry, chain 3 of 3) above

B1: ssDNA(Site2) (ssDNA)
DNA: GCTCAGAGGCCGAGGCGGCCTCGGCCTCTGCATAAATAAAAAAAATTAGTCAGCCAT
For the molecule B1, the Kd (commonly the equilibrium constant for the complex coming apart) in data set [1] was 100 ± 30 nM; in data set [2] it was 50 ± 10 nM; in [3] it was 40 ± 7 nM; in data set [4], 200 ± 60 nM; in data set [5], 80 ± 30 nM; in data set [6], 40 ± 5 nM. For the same molecule, the dissociation constant (Kd) in [7] is 70 ± 8 nM; in data set [8], 40 ± 10 nM; in data set [9], 70 ± 10 nM.

B2: dsDNA(Site2) (dsDNA)
DNA 1: B1 DNA
DNA 2: ATGGCTGACTAATTTTTTTTATTTATGCAGAGGCCGAGGCCGCCTCGGCCTCTGAGC
B2: the Kd in data set [3] came to 120 ± 110 nM; in [6], 100 ± 50 nM; in data set [7] it was 220 ± 130 nM.

B3: ssDNA (gap) 48-mer (ssDNA)
DNA: GGTCGACTCTAGAGGATCAGATCTGGTACCTCTAGACTCGAGGCATGC
Turning to B3, in data set [10], the binding result is on record as “binds”.

B4: ssDNA(GAPDH) (ssDNA)
DNA: CGACAGTCAGCCGCATCTTCTTTTGCGTCGCCAGCCGAGCCCTATAGTGAGTCGTAT
As to B4, the dissociation constant (Kd) was approximately 10 nM in data set [11]; 10 ± 1 nM in data set [2]; 40 ± 10 nM in data set [7]; approximately 110 nM in [12]; 80 ± 40 nM in data set [14]. In data set [13], the binding result is “binds”.

B5: dsDNA(GAPDH) (dsDNA)
DNA 1: B4 DNA
DNA 2: ATACGACTCACTATAGGGCTCGGCTGGCGACGCAAAAGAAGATGCGGCTGACTGTCG
B5 yielded a Kd in [3] of 5800 ± 4000 nM.
